The target of data set [1] is ZFP52_VPR. Kind of data set: cell_activity; Klotho ELISA in HK-2. Particulars: tags: NLS, VP64-p65-Rta, HA, V5, His. As for the experimental part:
(§1) ELISA components were purchased from IBL and assays were performed according to the manufacturers instructions.
(§2) Klotho is largely expressed in the brain and kidney, and so further investigations were made using cell lines derived from those organs. The ZFPs were transfected into HK-2 cells and Klotho protein levels were measured.
For orientation: ELISA stands for enzyme-linked immunosorbent assay.

Data set [2] addresses ZFP52 (VP64). Kind of data set: cell_activity; Klotho ELISA in HK-2. The following applies: tags: NLS, VP64, HA. The procedure:
as §1, §2

For data set [3], the target named is ZFP3_Egr1_site3_antisense_VPR. The data set is described as follows: cell_activity; Klotho ELISA in HK-2. The following applies: tags: NLS, VP64-p65-Rta, HA, V5, His. The procedure:
as §1, §2

In data set [4] the target is ZFP3_Egr1_site3_antisense (VP64). Kind of data set: cell_activity; Klotho protein ELISA in HK-2; also active in HEK293 4 kb promoter reporter. Particulars: tags: NLS, VP64, HA. As for the experimental part: as §1, §2

Chain of ZFP3_Egr1_site3_antisense_VPR (chain, as listed by the source): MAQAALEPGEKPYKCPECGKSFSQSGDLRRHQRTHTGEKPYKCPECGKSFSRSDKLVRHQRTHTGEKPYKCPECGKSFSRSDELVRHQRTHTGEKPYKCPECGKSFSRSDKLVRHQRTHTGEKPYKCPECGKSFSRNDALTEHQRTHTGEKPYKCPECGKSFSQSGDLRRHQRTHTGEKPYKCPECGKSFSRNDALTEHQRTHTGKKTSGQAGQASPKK
Chain of ZFP52_VPR (chain, as listed by the source): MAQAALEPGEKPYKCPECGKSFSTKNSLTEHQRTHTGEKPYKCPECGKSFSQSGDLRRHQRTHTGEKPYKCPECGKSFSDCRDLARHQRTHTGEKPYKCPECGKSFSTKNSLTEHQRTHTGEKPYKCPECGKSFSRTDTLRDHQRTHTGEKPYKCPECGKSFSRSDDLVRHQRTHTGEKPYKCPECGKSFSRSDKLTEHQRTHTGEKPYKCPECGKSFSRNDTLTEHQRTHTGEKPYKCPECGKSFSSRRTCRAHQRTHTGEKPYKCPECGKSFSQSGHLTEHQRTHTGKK

B1: ZFP52 target (dsDNA)
DNA 1: CGACGTCCGCGGGCGACGCCTGCCGCACCT
DNA 2: AGGTGCGGCAGGCGTCGCCCGCGGACGTCG
Turning to B1, the values for the activity in data set [1] and in data set [2] were ~5 fold and ~2 fold, respectively.

B2: ZFP3_Egr1_site3 target (dsDNA)
DNA 1: CTGGCACTGGGGGTGGGGGCA
DNA 2: TGCCCCCACCCCCAGTGCCAG
Take B2: the activity in data set [3] and in data set [4] was ~3 fold throughout.

Values taken from patent publication US20210380648, “DNA BINDING PROTEINS AND USES THEREOF” (Klogenix LLC, published 2021).
